We go through 1 substance from PMC2688388.

The assay deals with mCeruleanC-α1C,77 (human Cav1.2 calcium channel α1C,77 subunit labeled at the C-tail with mCerulean) (human). The assay can be described thus: FRET or BRET; two-color FRET (mCerulean/tagRFP) epifluorescence microscopy in COS1 cells, control for cascade transfer: Rβ3 and α1CC without Vα1C. (Bioluminescence resonance energy transfer reports proximity on the nanometre scale.)
Chain of mCeruleanC-α1C,77 (human Cav1.2 calcium channel α1C,77 subunit labeled at the C-tail with mCerulean) (human) (Q13936 whole entry): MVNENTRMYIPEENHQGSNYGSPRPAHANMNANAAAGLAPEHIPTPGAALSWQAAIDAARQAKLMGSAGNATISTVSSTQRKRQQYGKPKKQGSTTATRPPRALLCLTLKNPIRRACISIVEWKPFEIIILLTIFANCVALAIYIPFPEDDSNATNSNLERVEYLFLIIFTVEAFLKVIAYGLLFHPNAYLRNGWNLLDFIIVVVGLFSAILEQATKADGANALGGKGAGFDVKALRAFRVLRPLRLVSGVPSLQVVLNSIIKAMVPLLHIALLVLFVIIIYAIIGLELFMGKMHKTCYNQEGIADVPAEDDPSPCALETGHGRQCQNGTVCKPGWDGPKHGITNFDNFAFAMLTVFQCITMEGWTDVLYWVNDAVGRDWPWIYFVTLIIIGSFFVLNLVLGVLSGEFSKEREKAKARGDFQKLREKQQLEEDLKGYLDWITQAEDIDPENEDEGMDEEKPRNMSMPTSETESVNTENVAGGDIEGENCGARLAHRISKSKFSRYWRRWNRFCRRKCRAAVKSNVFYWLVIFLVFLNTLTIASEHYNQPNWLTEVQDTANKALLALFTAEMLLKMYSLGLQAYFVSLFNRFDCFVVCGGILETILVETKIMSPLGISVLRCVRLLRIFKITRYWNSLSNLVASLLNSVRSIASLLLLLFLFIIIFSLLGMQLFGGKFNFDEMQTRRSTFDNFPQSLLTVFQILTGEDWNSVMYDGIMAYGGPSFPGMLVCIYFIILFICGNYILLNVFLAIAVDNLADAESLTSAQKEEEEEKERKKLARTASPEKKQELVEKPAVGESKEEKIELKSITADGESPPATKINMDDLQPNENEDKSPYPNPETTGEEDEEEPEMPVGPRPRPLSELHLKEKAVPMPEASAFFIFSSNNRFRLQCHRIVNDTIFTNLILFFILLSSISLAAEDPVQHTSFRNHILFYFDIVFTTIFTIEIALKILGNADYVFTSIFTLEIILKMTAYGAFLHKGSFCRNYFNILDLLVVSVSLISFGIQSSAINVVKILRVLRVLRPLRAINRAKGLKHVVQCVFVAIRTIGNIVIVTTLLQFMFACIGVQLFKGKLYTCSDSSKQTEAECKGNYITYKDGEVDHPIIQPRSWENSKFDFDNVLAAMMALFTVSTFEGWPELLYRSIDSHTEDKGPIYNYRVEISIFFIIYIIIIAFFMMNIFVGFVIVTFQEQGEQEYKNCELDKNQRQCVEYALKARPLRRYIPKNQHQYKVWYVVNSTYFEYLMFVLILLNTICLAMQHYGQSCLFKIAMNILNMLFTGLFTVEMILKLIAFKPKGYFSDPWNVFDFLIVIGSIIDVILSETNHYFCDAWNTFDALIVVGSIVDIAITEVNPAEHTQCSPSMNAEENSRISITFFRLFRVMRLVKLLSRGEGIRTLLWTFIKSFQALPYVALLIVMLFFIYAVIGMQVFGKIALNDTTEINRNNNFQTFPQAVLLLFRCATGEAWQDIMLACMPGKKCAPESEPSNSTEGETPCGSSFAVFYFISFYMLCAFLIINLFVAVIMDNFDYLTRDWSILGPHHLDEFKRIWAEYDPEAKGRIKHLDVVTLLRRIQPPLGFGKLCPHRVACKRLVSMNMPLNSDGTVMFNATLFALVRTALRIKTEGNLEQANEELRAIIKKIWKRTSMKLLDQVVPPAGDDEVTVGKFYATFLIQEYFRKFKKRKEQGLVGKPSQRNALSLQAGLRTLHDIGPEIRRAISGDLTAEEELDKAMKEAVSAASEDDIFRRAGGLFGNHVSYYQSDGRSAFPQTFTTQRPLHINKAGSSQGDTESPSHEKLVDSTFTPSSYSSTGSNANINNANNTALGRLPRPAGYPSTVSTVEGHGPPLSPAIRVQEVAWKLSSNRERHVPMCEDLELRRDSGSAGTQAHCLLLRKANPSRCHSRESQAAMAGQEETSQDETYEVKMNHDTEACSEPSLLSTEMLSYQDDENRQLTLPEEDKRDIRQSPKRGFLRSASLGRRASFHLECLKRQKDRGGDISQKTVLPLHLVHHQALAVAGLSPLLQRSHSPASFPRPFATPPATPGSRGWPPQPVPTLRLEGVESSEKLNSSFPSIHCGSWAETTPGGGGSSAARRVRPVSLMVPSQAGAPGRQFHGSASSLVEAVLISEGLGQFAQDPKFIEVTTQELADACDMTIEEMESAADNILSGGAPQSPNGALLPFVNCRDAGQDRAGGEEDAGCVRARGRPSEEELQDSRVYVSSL

In the case of “RFP-β3 (human Cavβ3 subunit with tagRFP fused to the N-terminus) (from UniProt P54284 1-484) (natural protein)”, the FRET efficiency is 0.05.
